Measured values published in patent publication US20040002439A1 (ORTHO MCNEIL PHARMACEUTICAL, published 2004).

Molecular target: Nav1.2 (a type II alpha subunit)
Assay: cell-based or functional assay

ionic current conducted by Nav1.2 in Xenopus oocytes (cut-open oocyte voltage clamp): ~3 fold
B1: human voltage gated sodium channel β1A subunit (other)
chain: ACGGCVEVDSETEAVYGMTFKILCISCKRRSETNAETFTEWTFRQKGTEEFVKILRYENEVLQLEEDERFEGRVVWNGSRGTKDLQDLSIFITNVTYNHSGDYECHVYRLLFFENYEHNTSVVKKIHIEVVDKGESGAACPFTVTHRRARWRDRWQAVDRTGWLCAWPANRPQQRAEGEGSSPSCPLQLWPLFLSSPRRGQSMPVPHRRSGYRTQLCHLCCMTSGRCLLSLSQRVVLGLPGIIIRCVSRGVV
